The target of this experiment is T1, SARS-CoV-2 RBD (RBD-luciferase antigen of the split-luciferase reporter) (SARS-CoV-2, UniProt P0DTC2 319-541).
T1 construct: domain: RBD
Description: split-luciferase reporter of RBD-hACE2 interaction; antibody against hACE2.

B1: 3A2 (antibody, V domains shown)
VH: QVTLKESGPGILQPSQTLSLTCSFSGFSLSTSGMGVSWIRQPSGKGLEWLAHIYWDDDKRYNPSLKSRLTISKDTSSSQVFLKITSVDTVDTATYYCARRGPLITTDGTFDVWGAGTTVTVSS
VL: DIVMTQSRKFMSTSVGDRVSITCKASQDVGTSVAWYQQKPGQSPKLLIYWASTRHTGVPDRFTGSGSGTDFTLTINSVQSEDLADYFCQQYSSYPYTFGGGTKLEMK
notes: also called 3A2 clone
Take B1: the “% inhibition of RBD-hACE2 binding” value was above 80%.

B2: 3F5 (antibody, V domains shown)
VH: B1 VH
VL: B1 VL
notes: also called 1-3F5
In the case of B2, the “% inhibition of RBD-hACE2 binding” value was above 80%.

B3: 3A7 (antibody, V domains shown)
VH: B1 VH
VL: B1 VL
notes: also called 3A7 clone
B3: the “% inhibition of RBD-hACE2 binding” value is above 80%.

B4: 3F2 (antibody, V domains shown)
VH: QVQLQQPGAELVKPGASVKMSCKASGYTFTSYSLHWVKQTPGQGLEWIGAVYPGNDDTSYNQNFKGKATLTADKSSNTAYMQLSSLTSEDSAVYYCARDGYFAMDYWGQGTSVTVSS
VL: DIVMSQSPSSLAVSVGEKVTMSCKSSQSLLYSTNQKNYLAWYQQKPGQSPKLLIYWASTRESGVPDRFTGSGSGTDFTLTISSVKAEDLAVYYCHQYYSYPWTFGGGTKLEIK
notes: also called 1-3F2
As for B4, the “% inhibition of RBD-hACE2 binding” value was above 80%.

B5: 3H2 (antibody, V domains shown)
VH: QVQLQQSGAELMKPGASVKISCKATGNTFSNYWIEWVKQRPGHGLEWIGEILPGSDSTNYNEKFKGKATFTADTSSKTAYMQLSSLTSEDSAVYYCARNRFYWYFDVWGAGTTVTVSS
VL: DVVMTQTPLSLPVSLGDQASISCRSSQSLVHSNGNTYLHWYLQKPGQSPKLLIYKVSNRFSGVPDRFSGSGSGTDFTLKISRVEAEDLGIYFCSQSTHVPWTFGGGTKLEIK
notes: also called 1-3H2
Turning to B5, the “% inhibition of RBD-hACE2 binding” value was above 80%.

B6: 3B3 (antibody, V domains shown)
VH: DVQLQESGPGLVKPSQSLSLTCTVTGYSITSDYAWIWIRQFPGNKLEWMAYISYSGTTSYNPSLKSRISITRDTSKNQFFLQLNSVTTEDTATYYCAGRRGAYYGNYEEDYWGRGTSVTVSS
VL: QIVLTQSPAIMSASPGEKVTMTCSSSSIVNYMYWYQQKPGSSPRLLIYDTSTLASGVPVRFSGSGSGTSYSLTISRMEAEDAATYYCQQWSSYPYTFGGGTKLEIK
notes: also called 3B3 clone; 1-3B3
On to B6, for which the “% inhibition of RBD-hACE2 binding” value was above 80%.
